The results in this text go back to publication PMC4198461.

In the experiment the target is T1, TRPV2, Q9WUD2.
T1 chain: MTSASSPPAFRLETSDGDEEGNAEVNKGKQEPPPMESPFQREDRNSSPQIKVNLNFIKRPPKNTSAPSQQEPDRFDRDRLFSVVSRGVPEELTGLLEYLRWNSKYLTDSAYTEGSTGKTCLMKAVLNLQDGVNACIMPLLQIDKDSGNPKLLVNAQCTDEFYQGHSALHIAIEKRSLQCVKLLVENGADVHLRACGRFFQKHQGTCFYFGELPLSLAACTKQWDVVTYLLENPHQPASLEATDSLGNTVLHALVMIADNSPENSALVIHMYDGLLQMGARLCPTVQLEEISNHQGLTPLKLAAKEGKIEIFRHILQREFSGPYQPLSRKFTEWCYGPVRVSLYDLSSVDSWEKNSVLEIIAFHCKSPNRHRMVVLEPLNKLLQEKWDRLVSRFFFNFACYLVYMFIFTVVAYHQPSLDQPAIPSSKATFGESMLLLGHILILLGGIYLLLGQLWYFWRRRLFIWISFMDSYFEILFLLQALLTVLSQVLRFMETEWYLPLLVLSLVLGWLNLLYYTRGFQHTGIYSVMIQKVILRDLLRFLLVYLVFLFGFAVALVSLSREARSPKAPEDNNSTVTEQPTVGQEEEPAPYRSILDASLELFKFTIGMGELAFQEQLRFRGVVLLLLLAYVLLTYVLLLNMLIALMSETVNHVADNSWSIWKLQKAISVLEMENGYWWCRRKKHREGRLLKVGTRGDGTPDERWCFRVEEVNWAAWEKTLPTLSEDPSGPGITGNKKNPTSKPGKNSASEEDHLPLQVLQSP
Nature of the experiment: SEC + native gel or EMSA + other: negative-stain EM. The settings on record: remark: other sources report otherwise.

B1: TRPV2, Q9WUD2 1-761 (natural protein)
chain: MTSASSPPAFRLETSDGDEEGNAEVNKGKQEPPPMESPFQREDRNSSPQIKVNLNFIKRPPKNTSAPSQQEPDRFDRDRLFSVVSRGVPEELTGLLEYLRWNSKYLTDSAYTEGSTGKTCLMKAVLNLQDGVNACIMPLLQIDKDSGNPKLLVNAQCTDEFYQGHSALHIAIEKRSLQCVKLLVENGADVHLRACGRFFQKHQGTCFYFGELPLSLAACTKQWDVVTYLLENPHQPASLEATDSLGNTVLHALVMIADNSPENSALVIHMYDGLLQMGARLCPTVQLEEISNHQGLTPLKLAAKEGKIEIFRHILQREFSGPYQPLSRKFTEWCYGPVRVSLYDLSSVDSWEKNSVLEIIAFHCKSPNRHRMVVLEPLNKLLQEKWDRLVSRFFFNFACYLVYMFIFTVVAYHQPSLDQPAIPSSKATFGESMLLLGHILILLGGIYLLLGQLWYFWRRRLFIWISFMDSYFEILFLLQALLTVLSQVLRFMETEWYLPLLVLSLVLGWLNLLYYTRGFQHTGIYSVMIQKVILRDLLRFLLVYLVFLFGFAVALVSLSREARSPKAPEDNNSTVTEQPTVGQEEEPAPYRSILDASLELFKFTIGMGELAFQEQLRFRGVVLLLLLAYVLLTYVLLLNMLIALMSETVNHVADNSWSIWKLQKAISVLEMENGYWWCRRKKHREGRLLKVGTRGDGTPDERWCFRVEEVNWAAWEKTLPTLSEDPSGPGITGNKKNPTSKPGKNSASEEDHLPLQVLQSP
As for B1, the stoichiometry N stood at 4.
